Test results taken from patent US20110318339A1 (FABRUS, published 2011).
Substitutions are numbered along the chain they refer to. Names and notes keep the numbering of the source. Each block holds one binder with its values, some of them ahead of it.

Key:
[1] = biological target: T1, Recombinant Human DLL4 (Cat# 1506-D4/CF) (human, UniProt Q9NR61 27-529); assay: Multispot ECL; Fab 70 nM
T1 construct: Bought from R&D Systems; also called rHuman DLL4; hDLL4
Description: (§1) An 150 μl aliquot of 1% Bovine Serum Albumin (BSA) in Tris-buffered Saline Tween (TBST) was added to each well and allowed to incubate for 30 min at 20° C. followed by washing and tap drying to completely remove any residual solution. Subsequently, a 12.5 μl aliquot of 1% BSA TBST was added to each well followed by the addition of a 12.5 μl aliquot of a purified Fab. The plate was sealed and incubated for 1 hour at 20° C. with shaking.
(§2) Detection antibodies were prepared by individually conjugating both goat anti-human Kappa light chain polyclonal antibody (K3502-1MG, Sigma-Aldrich) and goat anti-human Lambda light chain polyclonal antibody (L1645-1 mL, Sigma-Aldrich) with Ruthenium (II) tris-bipyridine-(4-methylsulfone)-N-hydroxysuccinimide (SULFO-TAG NHS-ester, Meso Scale Discovery) according to the manufacturer's instructions. TAG-detection antibody at 25 μl was added to each well and allowed to incubate for 1 hour at 20° C. with shaking. Finally, 15 μl of Read Buffer P with Surfactant (Cat # R92PC-1, Meso Scale Discovery) was added to each well. The electrochemiluminescence was measured using a Sector Imager 2400 (Meso Scale Discovery). Data was analyzed by comparing the ECL signals for an antigen to the blank of each well. A signal to blank ratio of 4 or more was considered a “Hit” Fab. […]

[2] = biological target: T2, rHuman HGF R/c-MET/Fc Chimera, CF (Cat# 358-MT/CF) (human, UniProt P08581 25-932); assay: Multispot ECL; Fab 70 nM
T2 construct: Bought from R&D Systems; also called HGF R/Fc; hepatocyte growth factor receptor (HGF R/c-Met)
Description: as §1, §2

[3] = biological target: T1, Recombinant Human DLL4 (Cat# 1506-D4/CF); assay: Multispot ECL; Fab 4.375 nM
Description: as §1, §2

[4] = biological target: T2, rHuman HGF R/c-MET/Fc Chimera, CF (Cat# …); assay: Multispot ECL; Fab 4.375 nM
Description: as §1, §2

[5] = biological target: T1, Recombinant Human DLL4 (Cat# 1506-D4/CF); assay: Multispot ECL; Fab 280 nM
Description: as §1, §2

[6] = biological target: T2, rHuman HGF R/c-MET/Fc Chimera, CF (Cat# …); assay: Multispot ECL; Fab 280 nM
Description: as §1, §2

[7] = biological target: T1, Recombinant Human DLL4 (Cat# 1506-D4/CF); assay: Multispot ECL; Fab 17.5 nM
Description: as §1, §2

[8] = biological target: T2, rHuman HGF R/c-MET/Fc Chimera, CF (Cat# …); assay: Multispot ECL; Fab 17.5 nM
Description: as §1, §2

[9] = biological target: T1, Recombinant Human DLL4 (Cat# 1506-D4/CF); assay: Multispot ECL; Fab 57.5 nM
Description: as §1
(§3) Detection antibodies were prepared by individually conjugating both goat anti-human Kappa light chain polyclonal antibody (K3502-1MG, Sigma-Aldrich) and goat anti-human Lambda light chain polyclonal antibody (L1645-1 mL, Sigma-Aldrich) with Ruthenium (II) tris-bipyridine-(4-methylsulfone)-N-hydroxysuccinimide (SULFO-TAG NHS-ester, Meso Scale Discovery) according to the manufacturer's instructions. TAG-detection antibody at 25 μl was added to each well and allowed to incubate for 1 hour at 20° C. with shaking. Finally, 15 μl of Read Buffer P with Surfactant (Cat # R92PC-1, Meso Scale Discovery) was added to each well. The electrochemiluminescence was measured using a Sector Imager 2400 (Meso Scale Discovery). Data was analyzed by comparing the ECL signals for an antigen to the blank of each well. A signal to blank ratio of 4 or more was considered a “Hit” Fab.
(§4) To confirm a “Hit” from the initial Multispot ECL screening, a Fab concentration dependent titration was carried out to determine the Fab-antigen binding affinity.

[10] = biological target: T3, rHuman IGF-1 sR, (IGF-1 sR), CF (Cat# 391-GR) (human, UniProt P08069 31-932); assay: Multispot ECL; Fab 57.5 nM
T3 construct: Bought from R&D Systems; also called insulin-like growth factor-1 soluble receptor
Description: as §1, §3, §4

[11] = biological target: T4, rHuman Notch-1/Fc Chimera, CF (Cat# 3647-TK) (human, UniProt P46531 19-526); assay: Multispot ECL; Fab 57.5 nM
T4 construct: Bought from R&D Systems
Description: as §1, §3, §4

[12] = biological target: T5, rHuman Erythropoietin R/Fc Chimera, CF (Cat# 963-ER) (human, UniProt P19235 25-250); assay: Multispot ECL; Fab 57.5 nM
T5 construct: Bought from R&D Systems; also called EPO R/Fc; Epo R/Fc chimera
T5 sequence (looked up): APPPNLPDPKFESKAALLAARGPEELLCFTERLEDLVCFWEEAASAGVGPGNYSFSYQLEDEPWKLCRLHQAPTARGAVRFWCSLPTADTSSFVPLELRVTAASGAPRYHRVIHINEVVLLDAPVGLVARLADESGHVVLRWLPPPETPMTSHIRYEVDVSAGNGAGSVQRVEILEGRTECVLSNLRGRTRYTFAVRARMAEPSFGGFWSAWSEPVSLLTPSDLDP
Description: as §1, §3, §4

[13] = biological target: T1, Recombinant Human DLL4 (Cat# 1506-D4/CF); assay: Multispot ECL; Fab 230 nM
Description: as §1, §3, §4

[14] = biological target: T3, rHuman IGF-1 sR, (IGF-1 sR), CF (Cat# …); assay: Multispot ECL; Fab 230 nM
Description: as §1, §3, §4

[15] = biological target: T4, rHuman Notch-1/Fc Chimera, CF (Cat# …); assay: Multispot ECL; Fab 230 nM
Description: as §1, §3, §4

[16] = biological target: T5, rHuman Erythropoietin R/Fc Chimera, CF …; assay: Multispot ECL; Fab 230 nM
Description: as §1, §3, §4

[17] = biological target: T1, Recombinant Human DLL4 (Cat# 1506-D4/CF); assay: Multispot ECL; Fab 14.375 nM
Description: as §1, §3, §4

[18] = biological target: T3, rHuman IGF-1 sR, (IGF-1 sR), CF (Cat# …); assay: Multispot ECL; Fab 14.375 nM
Description: as §1, §3, §4

[19] = biological target: T4, rHuman Notch-1/Fc Chimera, CF (Cat# …); assay: Multispot ECL; Fab 14.375 nM
Description: as §1, §3, §4

[20] = biological target: T5, rHuman Erythropoietin R/Fc Chimera, CF …; assay: Multispot ECL; Fab 14.375 nM
Description: as §1, §3, §4

[21] = biological target: T1, Recombinant Human DLL4 (Cat# 1506-D4/CF); assay: Multispot ECL; Fab 920 nM
Description: as §1, §3, §4

[22] = biological target: T3, rHuman IGF-1 sR, (IGF-1 sR), CF (Cat# …); assay: Multispot ECL; Fab 920 nM
Description: as §1, §3, §4

[23] = biological target: T4, rHuman Notch-1/Fc Chimera, CF (Cat# …); assay: Multispot ECL; Fab 920 nM
Description: as §1, §3, §4

[24] = biological target: T5, rHuman Erythropoietin R/Fc Chimera, CF …; assay: Multispot ECL; Fab 920 nM
Description: as §1, §3, §4

[25] = biological target: T6, recombinant mouse DLL4 (Cat# 1389-D4-050/CF, R&D Systems) (mouse, UniProt Q9JI71 28-525); assay: ELISA, mDLL4 or hDLL4 coated
T6 construct: also called mDLL4
T6 sequence (Q9JI71 28-525 limits assumed): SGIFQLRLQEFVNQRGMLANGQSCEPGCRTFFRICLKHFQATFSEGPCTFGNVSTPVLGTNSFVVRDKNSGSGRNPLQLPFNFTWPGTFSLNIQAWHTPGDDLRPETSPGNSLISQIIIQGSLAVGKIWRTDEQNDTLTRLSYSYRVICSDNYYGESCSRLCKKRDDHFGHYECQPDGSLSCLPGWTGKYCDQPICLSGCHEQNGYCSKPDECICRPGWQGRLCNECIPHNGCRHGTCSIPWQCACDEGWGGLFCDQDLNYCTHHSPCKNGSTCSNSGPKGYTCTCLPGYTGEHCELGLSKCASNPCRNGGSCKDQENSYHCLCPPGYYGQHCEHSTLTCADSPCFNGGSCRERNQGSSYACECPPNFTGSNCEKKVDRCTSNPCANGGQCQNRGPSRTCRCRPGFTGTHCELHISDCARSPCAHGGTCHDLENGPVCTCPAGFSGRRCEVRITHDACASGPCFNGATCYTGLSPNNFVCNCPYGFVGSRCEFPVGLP

[26] = biological target: T7, DLL4 DSL (amino acid: 1-217) construct (human, UniProt Q9NR61 26-217); assay: Western blot, non-reducing
T7 construct: also called DSL construct; not shown: myc tag (and his tag) added by the PCR primers
Description: (§5) Media from transfected CHO cells was collected after 7 days. To enrich for the DLL4 protein, 1 ml aliquots of each sample were batch bound with 50 μl of Talon Resin for 30 minutes. To confirm protein production media samples were tested with mouse anti-c-myc mAb (Genescript; Catalog # A00704). Samples were washed and then boiled with loading dye in the presence or absence of DTT. A gel was run on each of the 2 samples for each condition: with DTT and without DTT. […] For detection goat anti-mouse HRP, goat anti-kappa HRP, and goat anti-lambda HRP were used, respectively.

[27] = biological target: T8, DLL4 Egf1 (amino acid: 1-251) construct (human, UniProt Q9NR61 26-251); assay: Western blot, non-reducing
T8 construct: also called EGF1 construct; not shown: myc tag (and his tag) added by the PCR primers
Description: as §5

[28] = biological target: T9, Recombinant Human DLL4 (Cat# 1506-D4/CF, R&D Systems) (human, UniProt Q9NR61 27-529); assay: SPR, DLL4 immobilised
T9 construct: Bought protein; also called rHuman DLL4; hDLL4
Description: In this example, the binding affinities of selected anti-DLL4 Fabs to recombinant human DLL4 (hDLL4, Cat# 1506-D4/CF, R&D Systems) were analyzed using Surface Plasmon Resonance (SPR) (Biosensor Tools, Salt Lake City, Utah). The Fabs analyzed include germline-derived antibodies and germline-modified DLL4 antibodies. Recombinant hDLL4 was immobilized on a SPR chip using amine coupling at three different surface densities. The Fabs were serially diluted 3-fold, with an initial concentration of 1 μM. Binding studies were run on a ProteOn system using a GLM sensor chip in 10 mM HEPES, pH 7.4, 150 mM NaCl, 0.01% Tween-20, and 0.1 mg/ml BSA at 25° C. The response data from each surface was globally fit to determine the binding constants.

[29] = biological target: T9, Recombinant Human DLL4 (Cat# …); assay: ELISA, DLL4 coated
[30] = biological target: T9, Recombinant Human DLL4 (Cat# …); assay: ELISA, hDLL4 coated, estimated from dose-dependent binding
[31] = biological target: T9, Recombinant Human DLL4 (Cat# …); assay: ECL competition, DLL4 coated; competitor 100 nM Ru-labeled Fab H:APF & L:wt
Description: Briefly, single spot 96-well standard plates (MSD) were coated overnight with 5 μl per well of 10 μg/ml DLL4 (R&D systems) in PBS with 0.03% Triton X-100. Some wells were left uncoated as blank. The next day, an 150 μl aliquot of 3% BSA in TBST was added to each well and allowed to incubate for 60 min at 20° C. to block the plate. […] After incubating the plate at 20° C. with shaking for 1 hour, the ECL signal was measured using a Sector Imager 2400.

B1: Fab VH1-46_IGHD2-15*01_IGHJ2*01 & L12_IGKJ1*01 (Fab, V domains shown)
VH: QVQLVQSGAEVKKPGASVKVSCKASGYTFTSYYMHWVRQAPGQGLEWMGIINPSGGSTSYAQKFQGRVTMTRDTSTSTVYMELSSLRSEDTAVYYCAREGYCSGGSCYSYWYFDLWGRGTLVTVSS
VL: not shown
notes: Germline-derived Fab from E. coli: VH in Plasmid A (CH1, His6 and Flag tags), VL in Plasmid C (kappa CL)
- ECL signal [1]: 2750
- ECL signal [2]: 1290
- ECL signal [3]: 558
- ECL signal [4]: 193
- ECL signal [5]: 8110
- ECL signal [6]: 3560
- ECL signal [7]: 1220
- ECL signal [8]: 565

B2: Fab VH1-46_IGHD3-10*01_IGHJ4*01 & L12_IGKJ1*01 (Fab, V domains shown)
VH: QVQLVQSGAEVKKPGASVKVSCKASGYTFTSYYMHWVRQAPGQGLEWMGIINPSGGSTSYAQKFQGRVTMTRDTSTSTVYMELSSLRSEDTAVYYCAREYYYGSGSYYNDYFDYWGQGTLVTVSS
VL: not shown
notes: as for B1
- ECL signal [9]: 144000
- ECL signal [10]: 2830
- ECL signal [11]: 5890
- ECL signal [12]: 4040
- ECL signal [13]: 119000
- ECL signal [14]: 4760
- ECL signal [15]: 9740
- ECL signal [16]: 6950
- ECL signal [17]: 125000
- ECL signal [18]: 1750
- ECL signal [19]: 4210
- ECL signal [20]: 2720
- ECL signal [21]: 73600
- ECL signal [22]: 10200
- ECL signal [23]: 20100
- ECL signal [24]: 16400

Further lines, results first:

- fold decrease in affinity for mDLL4 against hDLL4 [25]: 10 fold
- binding result [26]: no binding (tested: 20 nM Fab)
- binding result [27]: no binding (tested: 20 nM Fab)
- fold greater affinity for hDLL4 than for mouse DLL4 [28]: 5 fold
- fold increased binding affinity against the antibody mutants with heavy chain H:APFF ALTH [29]: ~10 fold
- Kd [30]: ~1 nM
B3: Fab VH1-46_IGHD6-6*01_IGHJ1*01 H:APFF VLTH & L6_IGKJ1*01 L:NDH LS (Fab, V domains shown)
VH: QVQLVQSGAEVKKPGASVKVSCKASGYTFTSYYMHWVRQAPGQGLEWMGIVLPTGHSTSYAQKFQGRVTMTRDTSTSTVYMELSSLRSEDTAVYYCAREEYAPFSAEYFQFWGQGTLVTVSS
VL: EIVLTQSPATLSLSPGERATLSCRASQNVDHYLAWYQQKPGQAPRLLIYDALNRSTGIPARFSGSGSGTDFTLTISSLEPEDFAVYYCQQRSNWPPWTFGQGTKVEIKR
notes: all other places give 370; also called Fab H:APFF VLTH & L:NDH LS; anti-DLL4 Fab H:APFF VLTH & L:NDH LS

- Kd [31]: ~30 nM
B4: Fab VH1-46_IGHD6-6*01_IGHJ1*01 H:APFF G56H & L6_IGKJ1*01 (Fab, V domains shown)
VH: B3 VH with V51I, L52N, T54S
VL: not shown
notes: Fab, kappa light chain; also called H:APFF G56H & L:wt
